# Test results published in article PMC2909260.
# Molecular target: ILT2 (immunoglobulin-like transcript 2)/CD85j (human (endogenous in peripheral blood CD4+ T cells)) (UniProt Q8NHL6)
# UniProt Q8NHL6, sequence (Q8NHL6 24-650): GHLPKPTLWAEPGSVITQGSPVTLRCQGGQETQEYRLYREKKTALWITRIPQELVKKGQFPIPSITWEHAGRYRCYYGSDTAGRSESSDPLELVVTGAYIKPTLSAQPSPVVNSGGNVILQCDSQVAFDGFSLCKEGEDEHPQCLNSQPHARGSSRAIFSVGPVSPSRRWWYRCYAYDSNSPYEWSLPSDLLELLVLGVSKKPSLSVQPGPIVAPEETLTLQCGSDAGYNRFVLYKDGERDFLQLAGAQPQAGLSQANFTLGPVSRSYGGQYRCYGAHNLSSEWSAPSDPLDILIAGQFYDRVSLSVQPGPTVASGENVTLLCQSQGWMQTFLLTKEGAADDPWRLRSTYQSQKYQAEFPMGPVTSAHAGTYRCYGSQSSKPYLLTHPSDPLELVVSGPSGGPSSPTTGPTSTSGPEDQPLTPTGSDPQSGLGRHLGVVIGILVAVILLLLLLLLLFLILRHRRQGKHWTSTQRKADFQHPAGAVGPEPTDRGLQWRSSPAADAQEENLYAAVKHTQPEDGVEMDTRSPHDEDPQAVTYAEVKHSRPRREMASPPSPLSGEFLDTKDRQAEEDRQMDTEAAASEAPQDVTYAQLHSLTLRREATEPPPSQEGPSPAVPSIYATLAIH
substance,measurement,value
soluble HLA-G (recombinant HLA-G1/G5 protein) (from UniProt P17693 25-308; P61769 21-119) (complex),"% of inhibition of CXCR3 expression (flow cytometry) by sHLA-G on anti-CD3 stimulated CD4+ T cells, with blocking anti-ILT2/CD85j mAb (clone #292319, 1 ug/10^6 cells) added",31.5%
same,"% of inhibition of CXCR3 expression (flow cytometry) by sHLA-G on anti-CD3 stimulated CD4+ T cells, with isotype-matched control mAb added (reference for the anti-ILT2 blocking)",47.5%
